Test results from patent US20220251222A1 (Johns Hopkins, published 2022).

Assays:
[1] = target: T1, IL-6R on IL-6-responsive HepG2 cells (UniProt P08887 20-468, limits assumed); experiment: cell-based or functional assay
T1 sequence (looked up): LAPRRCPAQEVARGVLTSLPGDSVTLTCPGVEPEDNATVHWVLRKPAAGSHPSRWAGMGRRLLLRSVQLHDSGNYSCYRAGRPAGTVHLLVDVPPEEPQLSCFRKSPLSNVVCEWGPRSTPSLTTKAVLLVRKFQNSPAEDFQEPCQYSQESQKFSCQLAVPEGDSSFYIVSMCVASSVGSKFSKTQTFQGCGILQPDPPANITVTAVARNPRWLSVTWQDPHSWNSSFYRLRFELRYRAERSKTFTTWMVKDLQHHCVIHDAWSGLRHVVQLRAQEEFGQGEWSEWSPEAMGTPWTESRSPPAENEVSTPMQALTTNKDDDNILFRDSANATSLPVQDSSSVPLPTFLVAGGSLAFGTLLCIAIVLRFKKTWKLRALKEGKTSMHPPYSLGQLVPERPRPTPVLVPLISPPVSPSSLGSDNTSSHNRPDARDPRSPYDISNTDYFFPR

[2] = target: T2, IL-6Rα expressed on lentivirally transduced HEK 293T cells (UniProt P08887 20-468, limits assumed); experiment: competition with 100 nM biotinylated IL-6 on IL-6Rα+/IL-8R- HEK 293T cells, flow cytometry
T2 construct: whole, on cells; also called IL-6Rα^+ cells; IL-6Rα^+/IL-8R^- HEK 293T cells
T2 sequence (looked up): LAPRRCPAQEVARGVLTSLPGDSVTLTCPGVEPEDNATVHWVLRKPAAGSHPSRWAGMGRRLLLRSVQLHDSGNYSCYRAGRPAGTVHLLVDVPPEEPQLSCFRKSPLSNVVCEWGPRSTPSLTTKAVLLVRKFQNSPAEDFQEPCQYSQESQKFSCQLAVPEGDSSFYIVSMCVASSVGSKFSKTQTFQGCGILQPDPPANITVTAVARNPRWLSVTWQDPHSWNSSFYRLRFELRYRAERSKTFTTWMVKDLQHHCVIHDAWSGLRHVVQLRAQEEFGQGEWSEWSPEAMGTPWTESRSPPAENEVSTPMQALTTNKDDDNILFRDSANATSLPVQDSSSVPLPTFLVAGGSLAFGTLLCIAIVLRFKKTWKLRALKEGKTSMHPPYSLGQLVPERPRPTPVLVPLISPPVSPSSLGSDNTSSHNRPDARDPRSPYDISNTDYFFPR
Experimental: IL-6Rα⁺/IL-8R⁻ and IL-6Rα⁻/IL-8R⁺ HEK 293T cells were cultured as previously described, and were trypsinized, resuspended in PBSA, and aliquoted into 96-well plates (2×10⁵ cells per well). IL-6Rα⁺/IL-8R⁻ 293T cells were incubated with titrations of various monoclonal or bispecific antibodies in the presence of saturating concentration of biotinylated IL-6 (100 nM) (Acro Biosystem, cat #: IL6-H8218-25UG) for 2 hr at 4° C. with rotation. Cells were then washed and incubated with 1:200 dilution of Alexa Fluor 647-conjugated streptavidin (Fisher Scientific, cat #: S21374) in PBSA for 15 min at 4° C. After a final wash, cells were resuspended in PBSA and analyzed on a CytoFLEX flow cytometer (Beckman Coulter). Curves were fitted to a first-order logistic model and IC₅₀ values were calculated using GraphPad Prism data analysis software. Mean fluorescence intensity (MFI) of unstimulated cells was subtracted. Similarly, IL-6Rα⁻/IL-8R⁺ 293T cells were incubated with titrations of various monoclonal or bispecific antibodies with saturating concentration of His-tagged IL-8 (400 nM) (Sino Biological, cat #: 10098-H08Y-100) for 2 hr at 4° C. with rotation. […] After a final wash, cells were resuspended in PBSA and analyzed on a CytoFLEX flow cytometer (Beckman Coulter). Curves were fitted to a first-order logistic model and IC₅₀ values were calculated using GraphPad Prism data analysis software. […]

[3] = target: T3, human IL-6Rα extracellular domain (ECD), residues 89-303 of the mature protein, with C-terminal biotin … (human, UniProt P08887 108-322, biotinylated with BirA ligase on the biotin acceptor peptide); experiment: competition: antibody against 300 nM biotinylated IL-6Rα ECD binding to IL-6-displaying yeast, flow cytometry
T3 construct: range 89-303; The range 89-303 counts on the mature protein, not on the precursor; Any linkers between the ECD, BAP and His tag are not described; also called IL-6Rα ECD; recombinant IL-6Rα
T3 sequence: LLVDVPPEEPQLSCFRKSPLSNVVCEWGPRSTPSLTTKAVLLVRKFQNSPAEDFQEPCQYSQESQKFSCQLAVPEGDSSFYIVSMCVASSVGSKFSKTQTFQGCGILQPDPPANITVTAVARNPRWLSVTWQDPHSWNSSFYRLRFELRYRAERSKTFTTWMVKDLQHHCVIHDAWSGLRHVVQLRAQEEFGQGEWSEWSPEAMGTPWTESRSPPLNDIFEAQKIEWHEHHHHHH
Experimental: Approximately 1×10⁵ human IL-6-displaying yeast per well were plated in a 96-well plate and washed with PBSA. Yeast cells were incubated with saturating concentrations of biotinylated human IL-6Rα (300 nM) and serial dilutions of unlabeled competitor antibody (either the anti-IL-6R antibody tocilizumab, the anti-IL-8R antibody 10H2, BS1, or BS2) in PBSA for 2 hours at room temperature. Cells were then washed and stained with a 1:200 dilution of Alexa647-conjugated streptavidin (Thermo) in PBSA for 15 min at 4° C. Cells were washed again and assessed for human IL-6Rα binding on a CytoFLEX flow cytometer (Beckman Coulter). Background-subtracted fluorescent signal as a fraction of receptor subunit binding in the absence of competitor antibody was plotted. Curves were fitted to a first order logistic model and half maximal inhibitory concentrations (IC₅₀s) were computed using GraphPad Prism. Assays were performed in triplicate and repeated two times with consistent results.
Tocilizumab is known to compete with IL-6 for IL-6Rα engagement. Thus, bispecific binding agents containing the tocilizumab variable regions (BS1 and BS2) were also expected to obstruct cytokine binding. […] However, tocilizumab (IC₅₀=59 nM), BS1 (IC₅₀=190 nM), and BS2 (IC₅₀=78 nM) all inhibited IL-6/IL-6Rα binding.

Row | Binder | inhibition of IL-6-induced STAT3 phosphorylation in HepG2 cells (IC50) [1] [nM] | IC50 [2] [nM] | IC50 [3] [nM] | inhibition of IL-6 signaling (pSTAT3) in HepG2 cells (IC50) [1] [nM]
1 | BS2 bispecific antibody (scFv-IgG fusion: 10H2 IgG with tocilizumab scFv on the light chains) (bispecific antibody, Human IgG1-based) heavy: not shown light: AGSQAVVTQESALTTSPGETVTLTCRSSTGAVTTSNYANWVQEKPDHLFTGLIGGTNNRPPGVPARFSGSLIGDKAALTITGAQIEDEAIYFCALWYSNHLVFGGGTKLTVLRTVAAPSVFIFPPSDEQLKSGTASVVCLLNNFYPREAKVQWKVDNALQSGNSQESVTEQDSKDSTYSLSSTLTLSKADYEKHKVYACEVTHQGLSSPVTKSFNRGECGGGGSGGGGSEVQLQESGPGLVRPSQTLSLTCTVSGYSITSDHAWSWVRQPPGRGLEWIGYISYSGITTYNPSLKSRVTMLRDTSKNQFSLRLSSVTAADTAVYYCARSLARTTAMDYWGQGSLVTVSSGGGGSGGGGSGGGGSDIQMTQSPSSLSASVGDRVTITCRASQDISSYLNWYQQKPGKAPKLLIYYTSRLHSGVPSRFSGSGSGTDFTFTISSLQPEDIATYYCQQGNTLPYTFGQGTKVEIK | 220 | 96 | 78 | –
2 | tocilizumab, recombinant monoclonal hIgG1 (anti-IL-6Rα) (antibody, V domains shown, also called anti-IL-6Rα antibody) VH: EVQLQESGPGLVRPSQTLSLTCTVSGYSITSDHAWSWVRQPPGRGLEWIGYISYSGITTYNPSLKSRVTMLRDTSKNQFSLRLSSVTAADTAVYYCARSLARTTAMDYWGQGSLVTVSS VL: DIQMTQSPSSLSASVGDRVTITCRASQDISSYLNWYQQKPGKAPKLLIYYTSRLHSGVPSRFSGSGSGTDFTFTISSLQPEDIATYYCQQGNTLPYTFGQGTKVEIK | – | 30 | 59 | 76
